These results are taken from PMC3469469.

One test concerns the target complement C3b (human) (UniProt P01024).
In test [1] the target is C3d C3d (Homo sapiens) (UniProt P01024). The settings on record: cited from earlier work.
The target is the same in test [2]. The note with it: cited from earlier work. The source holds these as a separate data set.

Like-named read-outs stand apart in the source and are kept apart here.

For orientation: Kd means the concentration at which binding is half-saturated.

Sequence of C3d C3d (Homo sapiens) (P01024 1002-1303): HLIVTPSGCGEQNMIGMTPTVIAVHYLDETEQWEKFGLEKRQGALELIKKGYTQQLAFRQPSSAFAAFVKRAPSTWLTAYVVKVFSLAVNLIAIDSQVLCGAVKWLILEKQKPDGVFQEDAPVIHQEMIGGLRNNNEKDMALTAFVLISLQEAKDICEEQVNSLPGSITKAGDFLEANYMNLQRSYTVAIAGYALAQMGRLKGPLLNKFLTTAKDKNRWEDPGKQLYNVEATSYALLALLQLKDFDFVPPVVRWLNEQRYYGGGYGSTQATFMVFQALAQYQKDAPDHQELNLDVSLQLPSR
Sequence of Efb Efb-C (P68799 101-165): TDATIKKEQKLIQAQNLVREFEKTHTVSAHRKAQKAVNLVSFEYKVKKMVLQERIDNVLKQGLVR
Sequence of Efb-C (domain or fragment) (A6QG59 101-165 limits assumed): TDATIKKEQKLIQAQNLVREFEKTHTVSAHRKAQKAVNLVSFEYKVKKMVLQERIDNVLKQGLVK

For the substance Sbi 3–4 (domain or fragment), the C3b left on serum-opsonized S. aureus after plasmin with 2 µM fragment, flow cytometry (amount without plasmin set to 100%) in the test with complement C3b (human) was found to be 50%.
As to Efb-C (domain or fragment), the C3b left on serum-opsonized S. aureus after plasmin with 2 µM fragment, flow cytometry (amount without plasmin set to 100%) with complement C3b (human) was 38%.
With Efb Efb-C (from UniProt P68799), in the test with C3d C3d (Homo sapiens) [1], the Kd is 0.8 nM.
As for Sbi domains 3-4 (from UniProt A7X659), the Kd with C3d C3d (Homo sapiens) [2] is 1400 nM.
